1 substance from US20160251409A1 can be followed below.

The target in the test is GPIIb/IIIa receptor on platelets (human) (UniProt P08514). Description: cell-based or functional assay.

As for Abciximab (ReoPro®) (Fab), the Platelet aggregation, 30 nM, SFLLRN 10 µM activated platelets was 60.7 % of control.
